Experimental data taken from patent US20220363623A1, “IMAGING AND THERAPEUTIC COMPOSITIONS” (priority 2019, published 2022).
*1 amine or outer side, *2 acyl side, *3 side chain or, on linkers, in order; H or OH if unused. Where a SMILES comes first, the peptide text is derived from it. Bridges are numbered along the chain shown (N, C = ends). Side-chain parts run from the residue outwards. [ ]: non-standard residue; d: D form. The star is where a group is joined. X1 = O=C([C@@H](Cc1ccccc1)N(c1c(NCCCCCN(O)[*:3])c(=O)c1=O)[*:1])[*:2]; X2 = CC(=O)N(O)CCCCCNC(=O)CCC(=O)N(O)CCCCCN*; Thr(ol) = C[C@@H](O)[C@H](N)CO; Suc = O=C(CCC(=O)[*:2])[*:1]

Columns and labels:
in vivo [1] = assay: in vivo; set-up: species or system mice; conditions: female, Balb/c nude, mouse, iv, total radioactivity
Experimental: (§1) PET-CT imaging and Biodistribution of Octreotate/tide Tracers. Female Balb/c nude mice (age 9 weeks) were inoculated subcutaneously on the right flank with 3×10^6 AR42J cells in PBS:Matrigel (1:1). Mice were weighed and tumours measured twice weekly using electronic callipers. Tumour volume (mm^3) was calculated as length^2×width/2. 12 mice were assigned for imaging and biodistribution studies (tumour volumes: 170-550 mm^3). DFOSqTIDE (2.5 MBq) and DFOSqTATE (2.2 MBq) were administered intravenously by tail vein injection to mice on. At 1, 2, 4 and 18 hr post injection three mice were anaesthetised using isoflurane and placed on the imaging bed of a G8 PET/CT scanner (Perkin Elmer). A CT scan was performed which was immediately followed by a 10 min static PET scan. PET images were reconstructed using the maximal likelihood and expectation maximization (ML-EM) algorithm. PET images were analysed using VivoQuant (Invicro) and Tumour SUVmax, Tumour SUVmax/background average (TBR) and Tumour SUVmax/liver average (TLR) determined. After imaging at 18 hr mice were euthanised and selected tissues were excised, weighed and counted using a Capintec (Captus 4000e) gamma counter. A separate cohort of 3 mice was harvested at 1 hr post injection for biodistribution analysis. The data was analysed using GraphPad Prism 7 and differences between tracers analysed using a t-test. The high tumor uptake was confirmed by an ex vivo biodistribution study in the same mouse model where mice were injected with either ^68GaDFOSq-TIDE and ^68GaDFOSq-TATE (2-3 MBq, 1 μg, 0.5 nmol) and then euthanised at either 1 h or 2 h after administration. The amount of injected activity per gram of tissue (% IA/g) in the tumor and major organs was quantified (FIG. 16).

in vivo [2] = assay: in vivo; set-up: species or system mice; conditions: female, Balb/c nude, mouse, iv, total radioactivity; remark: listed apart in the source
Experimental: as §1, with “t-test.” for “t-test. The high tumor uptake was confirmed by an ex vivo biodistribution study in the same mouse model where mice were injected with either ^68GaDFOSq-TIDE and ^68GaDFOSq-TATE (2-3 MBq, 1 μg, 0.5 nmol) and then euthanised at either 1 h or 2 h after administration. The amount of injected activity per gram of tissue (% IA/g) in the tumor and major organs was quantified (FIG. 16).”
(§2) AR42J (rat pancreatic cancer cell line) tumour bearing Balb/c nude mice as described above were injected intravenously via tail vein injection with ^89ZrDFOSqTATE or ^89ZrDFOSqTIDE (2-3 MBq). At 1, 2, 4 and 18 h post-injection the mice were anaesthetised with isoflurane and imaged over 10 min. At 1 hr after injection of DFOSqTIDE and DFOSqTATE, uptake into kidney, tumour and liver was observed. Representative PET images of mice injected with DFOSqTIDE and DFOSqTATE are shown in FIG. 12 and quantitation of the tumour SUVmax for each radiotracer is summarised in FIG. 13a.
(§3) ^68GaDFOSq-TIDE and ^68GaDFOSq-TATE tracers were injected (2-3 MBq, 1 μg, 0.5 nmol) intravenously via tail vein to AR42J (rat pancreatic cancer cell line) tumour bearing Balb/c nude mice. PET images were acquired at 1 and 2 h post-injection (FIGS. 15a and b). […] Quantification of the uptake in the images using Standard Uptake Value (SUVmax=radioactivity in a tissue/injected activity/BW) confirms the higher uptake for ^68GaDFOSq-TATE (1 h; SUVmax 1.8±0.2, compared to 1.21±0.20, FIG. 15c). The higher tumor uptake of ^68GaDFOSqTATE was also associated with a higher degree of tumor retention at 2 h post injection with only a 5% reduction in SUVmax whereas the tumor SUVmax for ^68GaDFOSqTIDE reduced by 30% ^68GaDFOSqTATE at 2 h post injection. Both tracers clear rapidly from the blood and there is low uptake in bone consistent with stable gallium-68 complexes as well as low uptake in muscle. Both tracers have significant uptake in the kidneys and bladder.

[3] = tested on: AR42J (rat pancreatic cancer cell line) tumour; assay: in vivo; set-up: species or system mice; conditions: mouse
Experimental: as §1, with “t-test.” for “t-test. The high tumor uptake was confirmed by an ex vivo biodistribution study in the same mouse model where mice were injected with either ^68GaDFOSq-TIDE and ^68GaDFOSq-TATE (2-3 MBq, 1 μg, 0.5 nmol) and then euthanised at either 1 h or 2 h after administration. The amount of injected activity per gram of tissue (% IA/g) in the tumor and major organs was quantified (FIG. 16).”
as §2, §3

DU145 cells = assay: Tracer uptake in DU145 cells, a PSMA negative cell line; type: cell-based; conditions: 60 min, in words
Experimental: Cell binding and internalization studies. LNCap cells (150,000/well) were plated in RPMI 1640 medium containing 10% FBS into wells of a 24 well plate pre-coated with 0.05% poly-L-lysine and incubated overnight at 37° C. and 5% CO2. The following day cells were washed twice with PBS and incubated for 1 hour at 37° C. in 1 mL per well internalisation buffer (MEM, 1% FBS). The buffer was then replaced with 1 ml per well of a warmed solution containing 0.5 μCi ^89Zr-DFOsq-PSMA tracers in internalisation buffer. Cells were incubated in triplicate for 5, 15, 30 or 60 min at 37° C. and 5% CO2. […] Total protein content was determined in this fraction using a BCA protein assay kit (Pierce). A Perkin Elmer 2480 Wizard automatic gamma counter was then used to measure Zr-89 radioactivity in unbound, surface bound and internalised fractions. Surface bound and internalised fractions were expressed as percentage of total added radioactivity per mg of protein. Non-specific membrane binding and internalisation was determined by incubating cells with the ^89Zr-DFOSq-PSMA tracers in the presence of excess (10 μM) PMPA. ^89Zr-DFOSq-PSMA tracers uptake at 60 min was also determined in DU145 cells (seeded at 125,000 cells/well), a PSMA negative cell line. The raw data was analysed using GraphPad Prism 7.

in vivo [4] = assay: in vivo; set-up: species or system mice; conditions: male, mouse, iv, total radioactivity
Experimental: PET-CT imaging and Biodistribution. Male Balb/c nude mice (age 8.5 weeks) or Male NSG mice (age 12 weeks) were inoculated subcutaneously on the right flank with 6×10^6 LNCap cells in PBS:Matrigel (1:1). Mice were weighed and tumours measured twice weekly using electronic callipers. Tumour volume (mm^3) was calculated as length×width×height×π/6. Mice were assigned for imaging and biodistribution studies (tumour volumes: 85-450 mm3). ^89Zr-DFOSq-PSMA tracers were then administered intravenously by tail vein injection to 6 mice. At 1, 2, 4 and 18 hr post injection three mice were anaesthetised using isoflurane and placed on the imaging bed of a G8 PET/CT scanner (Perkin Elmer). A CT scan was performed and followed immediately by a 10 min static PET scan. PET images were reconstructed using the maximal likelihood and expectation maximization (ML-EM) algorithm. PET Images were analysed using VivoQuant (Invicro) and Tumour SUVmax or Tumour SUVmax/background average (TBR) determined. After imaging at 18 hr mice were euthanised and selected tissues were excised, weighed and counted using a Capintec (Captus 4000e) gamma counter. A separate cohort of 3 mice was harvested at 1 hr post injection for biodistribution analysis as above. The data was analysed using GraphPad Prism 7 and differences between tracers analysed using a t-test.
^89Zr Labelled tracers: The ^89Zr radiolabelled PSMA tracers were injected intravenously via tail vein to LNCaP (human PSMA expressing prostate cancer cell line) tumour bearing mice. At 1, 2, 4 and 18 h post-injection the mice were anaesthetised with isoflurane and imaged over 10 min. The representative PET images of mice injected with ^89Zr radiolabelled PSMA tracers at 1 and 18 hr are shown in FIG. 1 and quantitation of the Tumour SUVmax for each tracer is shown in FIG. 2a. […] There was a trend for higher tumour SUVmax for (4) tracer compared to all other tracers at all time points. […] A comparison of tumour uptake values is shown in FIG. 2b and the tissue biodistribution data for the tracers at 1 and 18 hr is summarised in FIG. 3.
^68Ga Labelled tracers: Representative PET images of mice injected with ^68Ga(1) and ^68Ga(4) are shown in FIG. 4 and quantitation of the tumour SUVmax is shown in FIG. 5a. […] Tumour uptake of ^68Ga(4) was 1.6 and 1.8 fold higher than ^68Ga(1) at 1 and 2 hr p.i., respectively. This is consistent with the biodistribution results where tumour % ID/g for ^68Ga(4) was higher than ^68Ga(1) at 1 hr (10.8±1.3 vs 6.5±0.4) and at 2.5 hr (8.6±1.0 vs 4.1±0.5) p.i. […] (6.5±0.4% ID/g at 1 hr vs 4.1±0.5% ID/g at 2.5 hr). In contrast, there was no significant change in ^68Ga(4) tumour retention at 1 and 2.5 p.i. (10.8±1.3% ID/g vs […], FIG. 5b).

LNCap cells = assay: Cell binding and internalization studies in LNCap cells; type: cell-based, human
Experimental: Cell binding and internalization studies. LNCap cells (150,000/well) were plated in RPMI 1640 medium containing 10% FBS into wells of a 24 well plate pre-coated with 0.05% poly-L-lysine and incubated overnight at 37° C. and 5% CO2. The following day cells were washed twice with PBS and incubated for 1 hour at 37° C. in 1 mL per well internalisation buffer (MEM, 1% FBS). The buffer was then replaced with 1 ml per well of a warmed solution containing 0.5 μCi ^89Zr-DFOsq-PSMA tracers in internalisation buffer. Cells were incubated in triplicate for 5, 15, 30 or 60 min at 37° C. and 5% CO2. At each time point, cells were washed twice with ice-cold PBS and the washes collected for counting (unbound fraction). Cells were then incubated twice for 10 min in saline containing 10 μM PMPA and each wash collected for counting (surface bound fraction). The cells were then solubilised in 1 M NaOH (internalised fraction). Total protein content was determined in this fraction using a BCA protein assay kit (Pierce). A Perkin Elmer 2480 Wizard automatic gamma counter was then used to measure Zr-89 radioactivity in unbound, surface bound and internalised fractions. Surface bound and internalised fractions were expressed as percentage of total added radioactivity per mg of protein. Non-specific membrane binding and internalisation was determined by incubating cells with the ^89Zr-DFOSq-PSMA tracers in the presence of excess (10 μM) PMPA. ^89Zr-DFOSq-PSMA tracers uptake at 60 min was also determined in DU145 cells (seeded at 125,000 cells/well), a PSMA negative cell line. The raw data was analysed using GraphPad Prism 7.

[5] = tested on: AR42J (rat pancreatic cancer cell line) tumour; assay: in vivo; set-up: species or system mice; conditions: female, Balb/c nude, mouse, iv, 18 h
Experimental: as §1

[6] = Tumour uptake % IA/g 1 h post injection

CC(=O)N(O)CCCCCNC(=O)CCC(=O)N(O)CCCCCNC(=O)CCC(=O)N(O)CCCCCNc1c(N[C@H](Cc2ccccc2)C(=O)N[C@H]2CSSC[C@@H](C(=O)N[C@H](C(=O)O)[C@@H](C)O)NC(=O)[C@H]([C@@H](C)O)NC(=O)[C@H](CCCCN)NC(=O)[C@@H](Cc3c[nH]c4ccccc34)NC(=O)[C@H](Cc3ccc(O)cc3)NC2=O)c(=O)c1=O (68Ga complex, metal not drawn) [^68GaDFOSqTATE] (H-[X1]([Suc-X2])CY[dW]KTCT-OH; disulfide 2-7)
tissue uptake at 2 h (in vivo [1]; Tumor uptake % ID/g 2 h post injection): 9.22 ± 0.92 %ID/g
tissue uptake at 1 h (in vivo [1]; [6]): 9.8 ± 2.33 %ID/g
tissue uptake at 1 h (in vivo [1]; Uptake in the kidneys): 16 ± 3.27 %ID/g
SUV at 1 h (in vivo [2]): 1.8 ± 0.2 SUV
Reduction in tumor SUVmax at 2 h post injection [3]: 5%

CC(=O)N(O)CCCCCNC(=O)CCC(=O)N(O)CCCCCNC(=O)CCC(=O)N(O)CCCCCNc1c(N[C@H](Cc2ccccc2)C(=O)N[C@H]2CSSC[C@@H](C(=O)N[C@H](CO)[C@@H](C)O)NC(=O)[C@H]([C@@H](C)O)NC(=O)[C@H](CCCCN)NC(=O)[C@@H](Cc3c[nH]c4ccccc34)NC(=O)[C@H](Cc3ccc(O)cc3)NC2=O)c(=O)c1=O (68Ga complex, metal not drawn) [^68GaDFOSqTIDE] (H-[X1]([Suc-X2])CY[dW]KTC[Thr(ol)]; disulfide 2-7)
tissue uptake at 1 h (in vivo [1]; [6]): 8.81 ± 1.03 %ID/g
tissue uptake at 2 h (in vivo [1]; Tumour uptake % IA/g 2 h post injection): 4.4 ± 1.1 %ID/g
tissue uptake at 1 h (in vivo [1]; Uptake in the kidneys): 37.6 ± 3.5 %ID/g
SUV at 1 h (in vivo [2]): 1.21 ± 0.2 SUV
Reduction in tumor SUVmax at 2 h post injection [3]: 30%

CC(=O)N(O)CCCCCNC(=O)CCC(=O)N(O)CCCCCNC(=O)CCC(=O)N(O)CCCCCNc1c(NCc2ccc(C(=O)NCCCCC(NC(=O)NC(CCC(=O)O)C(=O)O)C(=O)O)cc2)c(=O)c1=O (centres unmarked) [(1), DFOSq-PhPSMA ligand]
Binding in DU145, PSMA negative cell line (DU145 cells): Minimal binding
tissue uptake at 1 h (in vivo [4]; Tumour Uptake % ID/g 1 h pi): 5.4 %ID/g
tissue uptake at 18 h (in vivo [4]; Tumour Uptake % ID/g 18 h pi): 2.2 %ID/g
Cell Uptake % AR/mg protein (60 min) internalized (LNCap cells; 89Zr tracers, 60 min, 37° C.): 7 % AR/mg protein
Internalised activity in the presence of excess PMPA (LNCap cells; excess (10 μM) PMPA): up to 5 % AR/mg protein
Surface binding (LNCap cells; presence and absence of excess PMPA, all timepoints): 2 % AR/mg protein

CC(=O)N(O)CCCCCNC(=O)CCC(=O)N(O)CCCCCNC(=O)CCC(=O)N(O)CCCCCNc1c(N[C@H](Cc2ccccc2)C(=O)N[C@H]2CSSC[C@@H](C(=O)N[C@H](CO)[C@@H](C)O)NC(=O)[C@H]([C@@H](C)O)NC(=O)[C@H](CCCCN)NC(=O)[C@@H](Cc3c[nH]c4ccccc34)NC(=O)[C@H](Cc3ccc(O)cc3)NC2=O)c(=O)c1=O [DFOSqTIDE] (H-[X1]([Suc-X2])CY[dW]KTC[Thr(ol)]; disulfide 2-7)
tissue uptake at 1 h (in vivo [1]; Tumour Uptake % ID/g 1 h pi): 3.4 ± 0.4 %ID/g
tissue uptake at 18 h (in vivo [1]; Tumour Uptake % ID/g 18 h pi): 1.7 ± 0.1 %ID/g
Tumour Uptake % ID/g 18 h pi [5]: 1.5±0.1 % ID/g
Tumour SUVmax Clearance % [3]: 55%
